Experimental data from the supplement of paper PMC9732359.
± gives the uncertainty stated by the source.

Experiment: protein stability index of a GFP-peptide fusion (yeast GPS) (PSI 1-4); higher = more stable; sorted into four equal gates, so the index is relative within each strain
Summary of the method: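 Peptides tiling yeast proteins in 17-residue segments were fused downstream of GFP, with Cherry expressed from the same plasmid. As a pooled library in yeast, mid-log cultures grown in leucine-free medium were sorted into four equal gates by GFP/Cherry fluorescence ratio. Gate plasmids were PCR-amplified and Illumina-sequenced, and barcodes linked reads to strains. Each peptide received a protein stability index equal to the sum of each gate's read frequency times its gate number.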

Row | Sequence | protein stability index (doa10∆) | protein stability index (pdr5∆) | protein stability index (san1∆) | protein stability index (ubr1∆)
1 | ISPKIWCAGAGTAADTE [PUP1] | 2.29 ± 0.1 | 2.36 ± 0.088 | 2.42 ± 0.12 | 2.24 ± 0.08
2 | EYIELEYRDLYTNSVEL [YMR129W/POM152] | 3.16 ± 0.11 | 3.28 ± 0.096 | 3.27 ± 0.085 | –
3 | SVFYNIANMVLPPEKIY [SIR2] | 1.78 ± 0.048 | 1.77 ± 0.043 | 1.81 ± 0.06 | 1.55 ± 0.04
4 | MMENYQNISPVYSVDPL [PRP8] | 2.08 ± 0.049 | 1.88 ± 0.058 | 2.21 ± 0.064 | 1.74 ± 0.044
5 | SNSMDRSSSASNEFVPN [SWI1] | 2.75 ± 0.055 | 2.71 ± 0.055 | 2.65 ± 0.046 | 2.69 ± 0.045
6 | DFNEIVQYLSGAHGNSD [POP3] | 1.24 ± 0.096 | 1.22 ± 0.14 | 1.18 ± 0.21 | 1.28 ± 0.11
7 | TNVQRIAAYIRRHRNPD [SMC1] | 3.1 ± 0.24 | 3.32 ± 0.22 | 3.29 ± 0.18 | 3.04 ± 0.16
8 | MEYLSGGEKTVAALALL [SMC1] | 2.2 ± 0.15 | 2.41 ± 0.11 | 1.68 ± 0.19 | 2.3 ± 0.13
9 | DQAELPNNASSHISASA [SNF2] | 1.79 ± 0.085 | 2.35 ± 0.068 | 2.1 ± 0.13 | 2.35 ± 0.063
10 | LNFKDDKKYKGLTTVWL [REC8] | 2.71 ± 0.064 | 2.77 ± 0.14 | 2.64 ± 0.13 | 2.69 ± 0.066
11 | FGYPETIANSIILHFAN [YMR153W/NUP53] | 2.05 ± 0.062 | 2.23 ± 0.067 | 1.88 ± 0.09 | 2.15 ± 0.066
12 | SKKSTITVRYWLNGKMD [RGR1] | – | – | 2.28 ± 0.2 | –
13 | MPRAPRTYSKTYSTPKR [RPS9A] | 2.3 ± 0.064 | 2.45 ± 0.069 | 2.68 ± 0.053 | 2.62 ± 0.054
14 | RMLEEAIDHLKAELEKQ [YIL149C/MLP2] | 3.25 ± 0.056 | 3.21 ± 0.063 | 3.32 ± 0.073 | 3.12 ± 0.053
15 | ATPIPEEVQQAQTEIKL [RPS5] | 2.82 ± 0.11 | 2.89 ± 0.1 | 2.97 ± 0.096 | 3.05 ± 0.11
16 | PNFLIMQGKITKVLNMK [SMC2] | 2.73 ± 0.1 | 2.86 ± 0.07 | 2.85 ± 0.055 | 2.88 ± 0.063
17 | KVKNQGADVTNTTQDNG [YCS4] | 3.17 ± 0.086 | 3.19 ± 0.084 | 3.11 ± 0.049 | 3.2 ± 0.057
18 | KFEPLYPREEEEDYNEF [PRP8] | 3.35 ± 0.15 | 3.31 ± 0.13 | 3.12 ± 0.072 | 3.37 ± 0.096
19 | IDLDNDEDDDEDVTDQE [DLS1] | 3.21 ± 0.12 | 2.89 ± 0.16 | 2.86 ± 0.083 | 3.17 ± 0.15
20 | MKPSDNISTNTNIHEPQ [SSN2] | 3.19 ± 0.042 | 3.08 ± 0.051 | 3.1 ± 0.042 | 3.06 ± 0.052
21 | KAAFEDLKSKGLIPADA [FAS1] | 3 ± 0.09 | 3.29 ± 0.1 | 3.14 ± 0.073 | 3.35 ± 0.066
22 | RKAYFTAPSSERRVLLS [RPL26B] | 1.45 ± 0.041 | 1.7 ± 0.051 | 2.49 ± 0.066 | 1.66 ± 0.045
23 | SEYNFLEGSVSLPRFSK [DIS3] | 3.1 ± 0.078 | 3.18 ± 0.068 | 3.11 ± 0.05 | 3.2 ± 0.05
24 | AFFHLFASLRVLPDADV [YJL039C/NUP192] | 1.17 ± 0.08 | 1.24 ± 0.078 | 1.36 ± 0.14 | 1.97 ± 0.066
25 | TGNFIIPSGNVWNYTFM [PRP8] | 3.05 ± 0.095 | 2.95 ± 0.12 | 2.88 ± 0.077 | 3.18 ± 0.12
26 | LAIADVETKLETKVDEL [DSN1] | 3.04 ± 0.084 | 3.09 ± 0.074 | 3.19 ± 0.05 | 2.85 ± 0.087
27 | TNSTYNPASATDNMSGR [YJL039C/NUP192] | 2.71 ± 0.058 | 2.73 ± 0.063 | 2.47 ± 0.054 | 2.56 ± 0.052

Row | Sequence | protein stability index (doa10∆) | protein stability index (pdr5∆) | protein stability index (san1∆) | protein stability index (ubr1∆)
28 | GATYRGKLVESEDSMNV [SMD3] | 3.17 ± 0.084 | 2.73 ± 0.053 | 3.01 ± 0.06 | 3.33 ± 0.055
29 | RAVKEIKKFAKLHMGTE [RPL31B] | 2.95 ± 0.071 | 2.94 ± 0.13 | 3.08 ± 0.08 | 2.61 ± 0.086
30 | NARKVVGASVVVVKNWG [RPS12] | 2.83 ± 0.15 | 2.69 ± 0.13 | 2.12 ± 0.24 | 2.67 ± 0.084
31 | LDSQETPSTEESRAQNV [SWI3] | 2.41 ± 0.091 | 2.38 ± 0.12 | 3.16 ± 0.089 | 2.37 ± 0.051
32 | DMSKILVDQGFNYSGKD [RET1] | 3.36 ± 0.073 | 3.31 ± 0.065 | 3.31 ± 0.04 | 3.49 ± 0.042
33 | SYRNGMASYMLNSFAFE [YJR042W/NUP85] | 2.29 ± 0.09 | 2.45 ± 0.11 | 2.6 ± 0.1 | 3.01 ± 0.084
34 | QRETYDSNESDDDVTPS [YLR335W/NUP2] | 1.99 ± 0.1 | 2.43 ± 0.2 | 2.37 ± 0.15 | 2.65 ± 0.18
35 | GTNAMLPSPESLKTKLN [SNF5] | 1.88 ± 0.037 | 1.97 ± 0.035 | 2.19 ± 0.046 | 2.12 ± 0.034
36 | NYHPMNIDETSDEVSRG [SMC4] | 3.17 ± 0.082 | 3.17 ± 0.064 | 3.23 ± 0.054 | 3.14 ± 0.041
37 | CSSATVPKHMLDKLDEI [AAR2] | 2.79 ± 0.069 | 3.05 ± 0.088 | 2.98 ± 0.08 | 3.2 ± 0.067
38 | TDLRFQSSAIGALQESV [HHT1] | 1.32 ± 0.13 | 1.41 ± 0.13 | 1.32 ± 0.17 | 1.32 ± 0.23
39 | YPEVVTPYNIDRLTQLV [RPO21] | 2.56 ± 0.2 | – | – | –
40 | NANIFSSVKCFGPIKVE [FAS1] | 2.04 ± 0.068 | 1.63 ± 0.046 | 2.17 ± 0.067 | 1.51 ± 0.058
41 | IAACTGVPDDKWEQTYK [FAS1] | 1.63 ± 0.15 | 1.21 ± 0.23 | – | 1.31 ± 0.29
42 | VGGTTSISGFKEALLGQ [ARP9] | 2.67 ± 0.087 | 2.53 ± 0.053 | 2.51 ± 0.048 | 2.81 ± 0.039
43 | VDAITRCYQPFELFDNK [SNU114] | 3 ± 0.073 | 3.06 ± 0.068 | 2.96 ± 0.049 | 3 ± 0.068
44 | IVRPAKGVATTREKVLE [RRP46] | 3.43 ± 0.16 | 2.83 ± 0.1 | 2.21 ± 0.12 | 3.09 ± 0.082
45 | VLRINKMLSCAGADRLQ [RPL10] | 1.1 ± 0.092 | 1.28 ± 0.14 | 1.17 ± 0.21 | 1.11 ± 0.084
46 | PHTVIRRKTTKQNSSSD [YDL088C/ASM4] | 3.14 ± 0.089 | 3.05 ± 0.079 | 3.01 ± 0.068 | 2.9 ± 0.043
47 | ERVIVVTGFAEVGPWGS [FAS2] | 1.16 ± 0.085 | 1.36 ± 0.083 | 2.03 ± 0.11 | 1.47 ± 0.074
48 | DANLLEEGETSRPLKKV [SWI3] | 3.23 ± 0.12 | 3.45 ± 0.16 | 2.95 ± 0.082 | 2.99 ± 0.15
49 | KRSGHRTAPKSDNVYLK [RPL18A] | 2.85 ± 0.12 | 2.68 ± 0.095 | 2.69 ± 0.12 | 2.61 ± 0.077
50 | LPSEDSRAQILQIHSRK [RPT5] | 2.21 ± 0.072 | 2.39 ± 0.049 | 2.55 ± 0.064 | 2.89 ± 0.04
51 | ALLTKRLYPHWDHPVIA [CSN12] | 2.19 ± 0.13 | 1.91 ± 0.1 | 1.7 ± 0.17 | 1.89 ± 0.068
52 | AAQAQAQAQAQAQAQAQ [GAL11] | 2.69 ± 0.045 | 2.9 ± 0.043 | 2.65 ± 0.04 | 2.95 ± 0.068
53 | RRIIQNAQQTFHIDHTK [RPO21] | 2.81 ± 0.061 | 2.89 ± 0.061 | 3 ± 0.062 | 2.89 ± 0.066
